Changes are numbered by the printed parent chain.

Experiment [1] concerns the target T1, SARS-CoV-2 receptor-binding domain (WT RBD; S protein residues 319-539) (SARS-CoV-2, UniProt P0DTC2 319-539).
T1 construct: also called SARS-COV-2 RBD
The experiment can be described thus: BLI (Octet Red), IgG on protein A biosensor, WT RBD in solution, 1:1 fit.

Experiment [2] concerns the target T2, SARS-CoV-2 receptor-binding domain (RBD), S protein residues 319-539 (SARS-CoV-2, UniProt P0DTC2 319-539).
T2 construct: also called WT RBD; SARS-COV-2 RBD
The experiment can be described thus: ELISA on coated RBD.

B1: C1027 (antibody, V domains shown)
VH: EVQLVESGGGLVQPGGSLRLSCAASGFIVTTNYMSWVRQAPGKGLEWVSLIYPGGSTFYADSVEGRFTISRDNSKNTLYLQVNSLRVEDTAVYYCARDTFGRGDDHWGQGTLVTVSS
VL: DIQMTQSPSSLSASVGDRVTITCQASQDINIYLNWYQQRPGKAPKLLIYDASNLQTGVPSRFSGSGSGTDFTITISSLQPEDIATYYCQQYDNLPRSFGQGTKLEI
With B1, in experiment [1], the Kd was determined as 0.0114 nM.

B2: C953 (antibody, V domains shown)
VH: QVQLVQSGAEVKKPGSSVKVSCKASGGTFSSYAISWVRQAPGQGLEWMGRIIPILGIANYAQKFQGRVTITADKSTSTAYMELSSLRSEDTAVYYCARDSEYSSSWYSRGYYGMDVWGQGTTVTVSS
VL: not shown
In the case of B2, binding in experiment [1] was put at a Kd of 164 nM.

B3: C1008 (antibody, V domains shown)
VH: EVQLVESGGGLIQPGGSLRLSCAASGFTVSSNYMSWVRQAPGKGLEWVSVIYSGGSTYYADSVKGRFTISRDNSKNTLYLQMNSLRAEDTAVYYCARVVGYDFWSGYDGGYFDYWGQGTLVTVSS
VL: QSALTQPASVSGSPGQSITISCTGTSSDVGSYNLVSWYQQHPGKAPKLMIYEVSKRPSGVSNRFSGSKSGNTASLTISGLQAEDEADYYCCSYAGSSTWVFGGGTKLTVL
Consider B3, for which, in experiment [1], the Kd is 500 nM. This Kd lies about 3-fold higher than the previous one.

B4: C1009 (antibody, V domains shown)
VH: EVQLVESGGGLLQPGGSLRLSCAASGFSVSSNYMTWVRQAPGKGLEWVAAIYSGDSTYYVDSVKGRFIISRDNSKNTVYLHLSSLRAEDTAVYYCARLVGYDFRSGSDGGYFDYWGHGTLVTVSS
VL: B3 VL with V29I, S31N, E52D, A86T
Take B4: binding in experiment [1] was characterised by a dissociation constant (Kd) of 2.13 nM. This Kd lies about 230-fold lower than the previous one.

B5: C901 (antibody, V domains shown)
VH: QVQLVESGGGVVQPGRSLRIACGASGFTFSTYDMHWVRQAPVKGLEWVAVISRDGSGKFYADSVKGRFTISRDNSKKTLYLQMDSLRPEDTAMYYCARDFESRTWDPPKYYYALDVWGQGTTVTVSS
VL: DIQMTQSPSSLSASVGDRVTITCRASQSISTYLNWYQQKPGKAPSLLIYAASSLYSGVPSRFSGSGSGTDFSLTISSLQPEDFATYYCQQTYTTPTWTFGQGTKVEIK
Turning to B5, the EC50 in experiment [2] was found to be 2.16 ng/mL.

B6: C890 (antibody, V domains shown)
VH: QVQLVQSGAEVKKPGSSVKASCKASGGTFSTYTISWVRQAPGHGLEWMGRIIPIFGTTKYAQKFQGRVTITADESTTTAYLELSSLRSEDTAVYYCTINTQWDLVPRWGQGTLVTVSS
VL: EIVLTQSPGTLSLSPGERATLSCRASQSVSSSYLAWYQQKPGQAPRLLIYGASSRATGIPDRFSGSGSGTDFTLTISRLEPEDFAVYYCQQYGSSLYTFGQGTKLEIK
Regarding B6, in experiment [2], the EC50 came out at 2.2 ng/mL.

B7: C881 (antibody, V domains shown)
VH: EVQLVESGGGLIQPGGSLRLSCAVSGVAVSTNYMSWVRQAPGQGLEWVSTIYSGDTTYYSDSVKGRFTISRDNSKNTFYLQMNSLRVPDTAVYYCARLGGVFNGFNGSFDYWGQGTLVTVS
VL: QSALTQPASVSGSPGQSITISCIGTSSDFENYNLVSWYQQHPGKAPKVMIYEDTKRPSGVSNRFSGSKSANTASLTISGLQAEDEAEYYCCSYAGASTWVFGGGTRVTVV
B7 gave a Kd in experiment [1] of 5.26 nM.

B8: C881 (antibody, V domains shown)
VH: B7 VH
VL: B7 VL
Molecule B8 displayed an EC50 in experiment [2] of 1.44 ng/mL.

B9: C845 (antibody, V domains shown)
VH: QVQLQESGPGLVKPSQTLSLTCTVSGASISSGEYYWSWVRQPPGKGLEWVGYIYYSGSTYYNPSLKSRVTISVDTSKNHFSLKLKSLTAADTAVYFCATGGLSAFGELFPHDKWGQGTLVTVSS
VL: EIVLTQSPATLSLSPGERATLSCRASQSVGSDLAWYQQKPGQAPRLLIYDTSNRATGIPARFSGSGSGTDFTLTISSLDPADFAVYYCQQRTNWLFSFGPGTKVDIK
Regarding B9, a half-maximal response in experiment [2] (EC50) required 1.39 ng/mL. This EC50 and that of the molecule before are within 1.5-fold of each other.

B10: C889 (antibody, V domains shown)
VH: EVQLVESGGGLVQPGGSLRLSCAVSGFTVSSNYMTWVRQAPGKGLEWVSLIYSGTSAFYADSVKGRFTISRDNSKNTLYLQMSSLRVNDTAIYYCARDLRKDDGYSYGAFDYWGQGTLVTVSS
VL: QSALTQPASVSGSPGQSITISCSGTSSDVGAHNYVSWYQQYPGKAPKLMIFDVTDRPSGVSNRFSGSKSGNTASLTISGLQAEDEADYYCTSYTTNRSWVFGGGTKVTVL
Consider B10, for which the EC50 in experiment [2] came to 4.25 ng/mL.

B11: C908 (antibody, V domains shown)
VH: EVQLVQSGAEVKKPGESLKISCKASGYSFTIYWIGWVRQMPGKGLEWMGIIYPGESETRYSPSFQGQVTISADKSISTAYLQWRSLKASDTAMYYCARGGPPGGVKLELTDYWGQGTLVTVSS
VL: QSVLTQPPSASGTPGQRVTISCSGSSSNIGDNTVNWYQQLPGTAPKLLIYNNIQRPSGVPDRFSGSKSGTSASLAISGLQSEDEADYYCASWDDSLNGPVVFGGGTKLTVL
Regarding B11, the dissociation constant (Kd) in experiment [1] turned out to be 0.0026 nM.

B12: C960 (antibody, V domains shown)
VH: QVQLVESGGGVVQPGRSLTLSCTASGFTFNRFAMFWVRQAPGKGLEWVAVISFDGSYEHYAESVKGRFAIFRDNPKNTLYLQMNSLRAEDTAVYYCAKSPINYCANGVCYPDSWGQGTLVTVSS
VL: NFMLTQPHSVSESPGKTVTISCTGSSGSIANNYVQWYQQRPGSAPTTVIFEDTQRPSGVPDRFSGSIDSSSNSASLNISGLKPEDEADYYCQSFDVNSRWVFGGGTKLTVL
Regarding B12, the Kd in experiment [1] amounted to 6.67 nM.

B13: C891 (antibody, V domains shown)
VH: EVQLVESGGGLVKPGGSLRLSCAVSGFTFSNVWMSWVRQAPGKGLEWVGRIKSKTDGGTTDYAAPVKGRFTISRDDSKNTLYLQMNSLKTEDTAVYYCTSQLWLRGPGDYWGQGTLVTVSS
VL: B12 VL with N31S, F50Y, T53N, N77T, P83T, F94Y, V96S, N97S, S98L, R99N
B13 showed a concentration giving a half-maximal response (EC50) in experiment [2] of 1.44 ng/mL.

B14: C951 (antibody, V domains shown)
VH: QVQLQESGPRLVKPSGTLSLTCAVSGGSISTTNWWSWVRQPPGKGLEWIGEIHHSGNTNYNPSLKSRVTISVDRSKNQFSLKLSSVTAADTAVYFCARDGGRPGDPFDIWGQGTMVTVSS
VL: QSALTQPASVSGSPGQSITISCTGTSSDVGGYNYVSWYQQHPGKAPNLMIYDVSDRPSGVSNRFSGSKSGNTASLTISGLQAEDEADYYCNSFTSNSTRVFGTGTKVTV
B14 showed a Kd in experiment [1] of 3.03 nM.

B15: C853 (antibody, V domains shown)
VH: QVQLQESGPGLVKASQTLSLTCTVSGGSFRSGGYYYNWIRQHPGKGLEWIGYIFYTGVTYYNPSLKSRVSISVDTSKNQLSLNLTSVTAADTAVYYCARGSYSDYNGGWDYWGRGTLVTVS
VL: QSALTQPPSASGSPGQSVTISCIGTSSDVGGYNYVSWYQHHPGKAPKLIIYEVSKRPSGVPDRFSGSKSGNTASLTVSGLQADDEADYYCSSYAGSNNWVFGGGTKLTV
On to B15, for which binding in experiment [1] was characterised by a dissociation constant (Kd) of 5.88 nM. This Kd is about 1.9-fold higher than that of the molecule before.

B16: C887 (antibody, V domains shown)
VH: EVQLVESGGDLVQPGGSLRLSCAASGFTFTTYSMSWVRQAPGKGLEWISYINSGSANIHYADSVKGRFTVSRDNAKNSLYLQMNSLRDEDTAVYYCARGDCLSSSCYSLDYWGQGALVTVSS
VL: DIQMTQSPSSLSASVGDRVTITCRASQSITSYLSWYLQKPGEAPKLLIYAASILQSGVPSRFGGNGSGTDFTLTISSLQPEDFATFYCQQTYRSPLTFGGGTKVEIK
In experiment [2], B16 showed an EC50 of 2.53 ng/mL.

B17: C954 (antibody, V domains shown)
VH: QVQLVQSGAEVKKPGSSVKVSCKASGDTFTNYAFSWMRQAPGQGLEWMGRIIPILGIVKYSQKFQDRVRISADKSTSTAYMDLSSLRSEDTAMYYCARDSEFSTSWFSRGYHGMDVWGQGTTVTVSS
VL: DIVMTQSPLSLPVTPGEPASISCRSSQSLLHGDGYNYLDWYLQKPGQSPHLLIYLGSNRTSGVSDRFSGSGSGTDFTLKISRVEAEDVGVYYCMQALQTPPTFGGGTKVEIK
Consider B17, for which, in experiment [1], the Kd turned out to be 7.14 nM.

B18: C952 (antibody, V domains shown)
VH: EVQLVQSGAEVKKPGESLTISCKDSGNSFTIYWIGWVRQMPGKGLEWMGMIYPGDSGTRYSPSFEGQVTISADESINTAYLQWRSLKASDTAMYYCVRGIAVDWYFDLWGRGTLVTVSS
VL: QSVLTQPPSVSGAPGQRVTISCTGSSSNIGAGFDVHWYQQLPGTAPKLLIYGNNNRPSGVPDRFSGSKSATSASLAITGLQAEDEADYYCQSSDSSLSGLYVFGTGTNVIV
As for B18, the Kd in experiment [1] came to 0.172 nM.

B19: C843 (antibody, V domains shown)
VH: QVQLVESGGGVVQPGRSLRLSCAASGFTFSRYAMHWVRQAPGKGLEWVAVISYDGSNKYYATSLKGRCTISRDNSKNTLYLQMNSLRAEDTAVYFCAKQIGEYCSGGNCYQGSLDYWGQGTLVTVSS
VL: DIQMTQSPSSLSASVGDRVTITCQASQDISNYLNWYQQKPGKAPKLLIYDASDLETGVPSTFSGSGSGTDFTLTISSLQPEDFATYYCQQYDIVPFTFGPGTKVDIK
The molecule B19 showed an EC50 in experiment [2] of 1.34 ng/mL.

B20: C902 (antibody, V domains shown)
VH: EVQLVQSGAEVKKPGESLRISCKGSGYSFHTYWIHWVRQMPGKGLEWMGKIDPSDSYTNYSPSFQGHVTFSADRSISTAYLQWSSLKASDTATYYCARLSWSPPTRTTDEKNWFDPWGQGTLVTVSS
VL: DIQLTQSPSFLAASAGDRVTITCRASQGISSYLAWYQQKPGKAPKVLIYAASTLQSGVPSRFSGSGSGTEFTLTISSLQPEDCATYYCQQFNSDPLTFGGGTKVEIK
In experiment [2], B20 came in with an EC50 of 3.4 ng/mL.

B21: C892 (antibody, V domains shown)
VH: EVQLVESGGGLVKPGGSLKVSCTASGFTFTDAWMSWVRQAPGKGLEWVGRIKSRAYGGTTDYGAPVQGRFTISRDDSINTLYLQMNSLTAEDTAVYYCTSQLWLRGPGDYWGQGTLVTVSS
VL: NFMLTQPHSVSESPGKTVTISCTGSSGSIASNYVHWYQQRPGGAPTTVIYEDNQRPSGVPDRFSGSIDISSNSASLTISGLKTEDEGDYYCQSYDSGVNWVFGGGTKLTVL
Regarding B21, in experiment [2], a half-maximal effect (EC50) was put at 2.9 ng/mL.

B22: C844 (antibody, V domains shown)
VH: EVQLVESGGGLVKPGGSLRLSCVATGFSFSDAWMNWVRQAPGKGLEWVGRIRSEIADGTTDYAAPVKGRFTISRDDARNTLYLQMNSLEIEDTAVYYCTTGVVVVVSSSPDDAFDVWGQGTMVTVSS
VL: DIQMTQSPSSLSASVGDRVTITCRASQSIGHYLNWYQQKPGKAPKLLIYAASSLQSGVPSRFSGSGSGAGFTLTVNGLQPEDLATYYCQQYYTTPPTFGQGTKVEIK
The molecule B22 yielded an EC50 in experiment [2] of 1.28 ng/mL.

For orientation: Kd means the free concentration of one partner at which half of the binding sites on the other are occupied at equilibrium, for simple one-to-one binding. A lower Kd goes with tighter binding. Broadly, the EC50 is the concentration that produces a half-maximal response. A higher EC50 goes with weaker potency.

For the origin of these results see patent US20240218057A1 (ROCKEFELLER UNIVERSITY, published 2024).
